Measurements taken from patent publication US20230212319A1, “NOVEL ANTIGEN BINDING DOMAINS AND SYNTHETIC ANTIGEN RECEPTORS INCORPORATING THE SAME” (University of Southern California, priority 2020, published 2023).

B1: 22007 (protein)
chain: MALPVTALLLPLALLLHAARPQLQLQESGPGLVKPSETLSLTCTVSGDSISSGDYYWGWIRQPPGKGLEWIGHIYYSGVTYYNPSLKSRVTISVDTSRNQFSLKLSSVTAADTAVYYCTREDSSNWRSRGQGTLVTVSSLEDLKNVFPPEVAVFEPSEAEISHTQKATLVCLATGFYPDHVELSWWVNGKEVHSGVCTDPQPLKEQPALNDSRYCLSSRLRVSATFWQNPRNHFRCQVQFYGLSENDEWTQDRAKPVTQIVSAEAWGRADCGFTSESYQQGVLSATILYEILLGKATLYAVLVSALVLMAMVKRKDSRGRAKRSGSGATNFSLLKQAGDVEENPGPTSMDWIWRILFLVGAATGAHSFEVQLVESGGGLVQPGGSLRLSCAASGFNIKDTCIGWVRRAPGKEEELVADICPYKGSTRYADSVKGRFTISADTSKNTAYLQMNSLRAEDTAVYYCAIVSARDGYYNYWGQGTTVTVSSTRIQNPDPAVYQLRDSKSSDKSVCLFTDFDSQTNVSQSKDSDVYITDKCVLDMRSMDFKSNSAVAWSNKSDFACANAFNNSIIPEDTFFPSPESSCDVKLVEKSFETDTNLNFQNLSVIGFRILLLKVAGFNLLMTLRLWSSRAKRSGSGVKQTLNFDLLKLAGDVESNPGPSRGHMTEYKPTVRLATRDDVPRAVRTLAAAFADYPATRHTVDPDRHIERVTELQELFLTRVGLDIGKVWVADDGAAVAVWTTPESVEAGAVFAEIGPRMAELSGSRLAAQQQMEGLLAPHRPKEPAWFLATVGVSPDHQGKGLGSAVVLPGVEAAERAGVPAFLETSAPRNLPFYERLGFTVTADVEVPEGPRTWCMTRKPGA
B2: SEQ ID NO: 22247: Herceptin mimotag tagged SAR (protein)
chain: MALPVTALLLPLALLLHAARPACPQLGPYELWELSHGTGAVVRGAEFDIQMTQSPSSLSASVGDRVTITCKASDHINNWLAWYQQKPGQAPKLLIYGATTLETGVPSRFSGSGSGTDYTLTISSLQPEDFATYYCQQSWNTPWTFGQGTKLEIKRLEDLKNVFPPEVAVFEPSKAEIAHTQKATLVCLATGFYPDHVELSWWVNGKEVHSGVCTDPQPLKEQPALNDSRYCLSSRLRVSATFWQNPRNHFRCQVQFYGLSENDEWTQDRAKPVTQIVSAEAWGRADCGITSASYHQGVLSATILYEILLGKATLYAVLVSALVLMAMVKRKDSRGRAKRSGSGATNFSLLKQAGDVEENPGPTSATMDWIWRILFLVGAATGAHSGPQVQLQESGGGLAQAGGSLRLSCAASGRTFSMGWFRQAPGKEREFVAAITYSGGSPYYASSVRGRFTISRDNAKNTVYLQMNSLKPEDTAVYYCAANPTYGSDWNAENWGQGTQVTVSSGSGGGGSGGGGSGGGGSFEQVQLQQPGAELVKPGASVKMSCKASGYAFSSYWINWMKQKPGQGLEWIGQIYPGDGDTNYNGKFKGRATLTADTSSSTAYMQLSSLTSEDSAVYFCARSITTVVGCAMDYWGQGTSVTVSSTRIQNPDPAVYQLRDSKSSDKSVCLFTDFDSQTNVSQSKDSDVYITDKCVLDMRSMDFKSNSAVAWSNKSDFACANAFNNSIIPEDTFFPSSDVPCDVKLVEKSFETDTNLNFQNLSVIGFRILLLKVAGFNLLMTLRLWSSRAKRSGSGVKQTLNFDLLKLAGDVESNPGPSRGHMTEYKPTVRLATRDDVPRAVRTLAAAFADYPATRHTVDPDRHIERVTELQELFLTRVGLDIGKVWVADDGAAVAVWTTPESVEAGAVFAEIGPRMAELSGSRLAAQQQMEGLLAPHRPKEPAWFLATVGVSPDHQGKGLGSAVVLPGVEAAERAGVPAFLETSAPRNLPFYERLGFTVTADVEVPEGPRTWCMTRKPGA
modifications: Herceptin mimotag
B3: 21853 (protein)
chain: MALPVTALLLPLALLLHAARPSYVLTQPPSVSVAPGQTARITCGGNNIGGKSVHWYQQPPGQAPVVVVYDDSDRPSGIPERFSGSNSGNTATLTISRVEAGDEAVYYCQVWDSSSDHVVFGGGTKLTVLLEDLKNVFPPEVAVFEPSEAEISHTQKATLVCLATGFYPDHVELSWWVNGKEVHSGVCTDPQPLKEQPALNDSRYCLSSRLRVSATFWQNPRNHFRCQVQFYGLSENDEWTQDRAKPVTQIVSAEAWGRADCGFTSESYQQGVLSATILYEILLGKATLYAVLVSALVLMAMVKRKDSRGRAKRSGSGATNFSLLKQAGDVEENPGPTSMDWIWRILFLVGAATGAHSFEQLQLQESGPGLVKPSETLSLTCTVSGGSISSSSYFWGWIRQPPGKGLEWIGSIYYSGITYYNPSLKSRVTISVDTSKNQFSLKLSSVTAADTAVYYCARHDGAVAGLFDYWGQGTLVTVSSATRIQNPDPAVYQLRDSKSSDKSVCLFTDFDSQTNVSQSKDSDVYITDKCVLDMRSMDFKSNSAVAWSNKSDFACANAFNNSIIPEDTFFPSPESSCDVKLVEKSFETDTNLNFQNLSVIGFRILLLKVAGFNLLMTLRLWSS
B4: SEQ ID NO: 22248: Herceptin mimotag tagged SAR (protein)
chain: MALPVTALLLPLALLLHAARPDIQMTQSPSSLSASVGDRVTITCKASDHINNWLAWYQQKPGQAPKLLIYGATTLETGVPSRFSGSGSGTDYTLTISSLQPEDFATYYCQQSWNTPWTFGQGTKLEIKRLEDLKNVFPPEVAVFEPSEAEISHTQKATLVCLATGFYPDHVELSWWVNGKEVHSGVCTDPQPLKEQPALNDSRYCLSSRLRVSATFWQNPRNHFRCQVQFYGLSENDEWTQDRAKPVTQIVSAEAWGRADCGFTSESYQQGVLSATILYEILLGKATLYAVLVSALVLMAMVKRKDSRGRAKRSGSGATNFSLLKQAGDVEENPGPTSATMDWIWRILFLVGAATGAHSGPQLGPYELWELSHGSGPLGIAGIFEQVQLQQPGAELVKPGASVKMSCKASGYAFSSYWINWMKQKPGQGLEWIGQIYPGDGDTNYNGKFKGRATLTADTSSSTAYMQLSSLTSEDSAVYFCARSITTVVGCAMDYWGQGTSVTVSSTRIQNPDPAVYQLRDSKSSDKSVCLFTDFDSQTNVSQSKDSDVYITDKCVLDMRSMDFKSNSAVAWSNKSDFACANAFNNSIIPEDTFFPSPESSCDVKLVEKSFETDTNLNFQNLSVIGFRILLLKVAGFNLLMTLRLWSSRAKRSGSGVKQTLNFDLLKLAGDVESNPGPSRGHMTEYKPTVRLATRDDVPRAVRTLAAAFADYPATRHTVDPDRHIERVTELQELFLTRVGLDIGKVWVADDGAAVAVWTTPESVEAGAVFAEIGPRMAELSGSRLAAQQQMEGLLAPHRPKEPAWFLATVGVSPDHQGKGLGSAVVLPGVEAAERAGVPAFLETSAPRNLPFYERLGFTVTADVEVPEGPRTWCMTRKPGA
modifications: Herceptin mimotag
B5: 22093 (protein)
chain: MALPVTALLLPLALLLHAARPEVQLVESGGGLVQPGGSLRLSCAASGFNIKDTCIGWVRRAPGKEEELVAKICKYSGHTRYADSVKGRFTISADTSKNTAYLQMNSLRAEDTAVYYCAAVSVRDGHYNYWGQGTTVTVSSLEGKPIPNPLLGLDSTGSGEDLKNVFPPEVAVFEPSKAEIAHTQKATLVCLATGFYPDHVELSWWVNGKEVHSGVCTDPQPLKEQPALNDSRYCLSSRLRVSATFWQNPRNHFRCQVQFYGLSENDEWTQDRAKPVTQIVSAEAWGRADCGITSASYHQGVLSATILYEILLGKATLYAVLVSALVLMAMVKRKDSRGRAKRSGSGATNFSLLKQAGDVEENPGPTSTMALPVTALLLPLALLLHAARPDIQMTQSPSSLSASVGDRVTITCKASDHINNWLAWYQQKPGQAPKLLIYGATTLETGVPSRFSGSGSGTDYTLTISSLQPEDFATYYCQQSWNTPWTFGQGTKLEIKRGGGGSGGGGSGGGGSQVQLQQPGAELVKPGASVKMSCKASGYAFSSYWINWMKQKPGQGLEWIGQIYPGDGDTNYNGKFKGRATLTADTSSSTAYMQLSSLTSEDSAVYFCARSITTVVGCAMDYWGQGTSVTVSSTREQKLISEEDGSGIQNPDPAVYQLRDSKSSDKSVCLFTDFDSQTNVSQSKDSDVYITDKCVLDMRSMDFKSNSAVAWSNKSDFACANAFNNSIIPEDTFFPSSDVPCDVKLVEKSFETDTNLNFQNLSVIGFRILLLKVAGFNLLMTLRLWSSRAKRSGSGVKQTLNFDLLKLAGDVESNPGPSRGHMTEYKPTVRLATRDDVPRAVRTLAAAFADYPATRHTVDPDRHIERVTELQELFLTRVGLDIGKVWVADDGAAVAVWTTPESVEAGAVFAEIGPRMAELSGSRLAAQQQMEGLLAPHRPKEPAWFLATVGVSPDHQGKGLGSAVVLPGVEAAERAGVPAFLETSAPRNLPFYERLGFTVTADVEVPEGPRTWCMTRKPGA

Tests used:
RAJI cells = assay: JNG assay, co-culture with RAJI cells; type: cell-based; conditions: JNG cells expressing construct, co-culture with Raji
Outline: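 Read-out is NFAT-driven GFP measured by flow cytometry after ~4–18 h co-culture of SAR-expressing JNG cells with target cells (E:T about 1:2). SARs were introduced by lentiviral spinfection and selected with puromycin or blasticidin when possible; scores (+/- to 5+ ≈ 5–50% GFP+) are relative to parental JNG cells.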

LoVo = assay: JNG NFAT-GFP assay, co-culture with LoVo cells; type: cell-based
[1] = test system: JNG cells expressing the constructs
THP-1 cells = assay: JNG NFAT-GFP induction on co-culture with THP-1
[2] = JNG NFAT-GFP background GFP induction (tonic signaling)
L363-Luc cells = assay: L363 xenograft in NSG mice
Nalm6 cells = assay: JNG assay, co-culture with Nalm6 cells; type: cell-based; conditions: co-culture with Nalm6
Outline: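 Read-out: % GFP-positive cells by flow cytometry after ~4 to 18 h coculture of SAR-transduced JNG cells with targets (E:T about 1:2). Scores reflect GFP induction above parental JNG controls: +/- ≈5%, + ≈10%, up to 5+ ≈50%.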

| Molecule | NFAT-GFP ASSAY: Raji (RAJI cells) | NFAT-GFP ASSAY: LoVo (LoVo) | cytotoxicity when exposed to antibody [1] | also measured |
| --- | --- | --- | --- | --- |
| B1 | +/- (refer to approximately 5%, 10%, 20%, 30%, 40% and 50% GFP positive cells) | +/- (refer to approximately 5%, 10%, 20%, 30%, 40% and 50% GFP positive cells) |  |  |
| B2 |  |  | showed cytotoxicity |  |
| B3 |  |  |  | GFP induction upon co-culture with THP-1 (THP-1 cells): no GFP induction; background GFP induction (tonic signaling) [2]: no background GFP induction; disease control, L363 xenograft (L363-Luc cells; 0.5 × 10^6 L363-Luc i.v., 3 days later 2 × 10^6 SAR-T i.v., compared to control T cells): superior disease control; survival, L363 xenograft (L363-Luc cells; mouse, in vivo, iv): prolongation of survival |
| B4 |  |  | showed cytotoxicity |  |
| B5 | 2+ (refer to approximately 5%, 10%, 20%, 30%, 40% and 50% GFP positive cells) | +/- (refer to approximately 5%, 10%, 20%, 30%, 40% and 50% GFP positive cells) |  | NFAT-GFP ASSAY: Nalm6 (Nalm6 cells): + (refer to approximately 5%, 10%, 20%, 30%, 40% and 50% GFP positive cells) |
